Common to all, as to format: cell-based
Experiment [1] deals with EGFR. The experiment can be described thus: Immunofluorescence microscopy: localization of EGFR. Conditions: MDA-MB468; 10 ng/ml, 2 hours; FIG. 4A, FIG. 7. As to the method: (§1) BT20 and MDA-MB468 triple negative (HER2-, ER-, PR-) were obtained from American Type Culture Collection (ATCC N°HTB19, and ATCC N°HTB132, respectively). The LumB, and Her2-, ER-, PR-negative IJG-1731 cell line was previously established at the laboratory as described (Mombelli et al. Sci Rep. 2015 Jul. 8; 5:11874.) BT20 and IJG-1731 cells were grown in complete RPMI-1640 media with L-glutamine, supplemented with 10% fetal calf serum (FCS) and penicillin—streptomycin solution (100 μg/ml each) (Life technology, Saint-Aubain, France). MDA-MB468 cells were grown in a complete DMEM-F12 media with glutamine, 10% FCS and penicillin—streptomycin. All cells were maintained in a humidified 5% CO2 atmosphere at 37° C. All experiments were conducted with cells at confluency and starved for an overnight.
Cells (4.10^3) were grown on Lab-Tek chambers slide in their respective complete culture medium for 24 hours then starved for an overnight. Cells were then stimulated with IL-17E (long/ml), EGF (10 ng/ml) or a combination of both for 2 hours at 37° C., washed, and fixed with 4% paraformaldehyde (PFA)-PBS solution at 4° C. […] Slides were mounted with mounting medium containing Dapi then visualized with a Leica DMRB fluorescence microscope and images analysis was performed with the Archimed Software (Microvision).

The subject of experiment [2] is STAT3. The experiment can be described thus: Tyrosine phosphorylation by Western blotting: STAT3 phosphorylation in TNBC cell lines. Conditions: 10 ng/ml. As to the method: as §1
(§2) Cells (3×10^5) were seeded in 6-well plates in complete medium for 24 hours then starved for another overnight. Cells were then stimulated with IL-17E (10 ng/ml), EGF (10 ng/ml), or a combination of both for 30 min in serum-free medium. Cells were then lysed in 1% Triton X100 buffer and left on ice for 1 hours. Protein samples were then subjected to 8% SDS-PAGE. Western blotting using specific antibodies assessed then the phosphorylation of the various kinases.

The test system of experiment [3] is STAT3. The experiment can be described thus: Cellular fractionation and Western blotting: STAT3 and pSTAT3 translocation to the nucleus. Conditions: MDA-MB468 fractions. As to the method: as §1
(§3) Cells (3×10^5) were seeded in 6-well plates in complete medium for 24 hours then starved for another overnight. Cells were stimulated for 2 hours at 37° C. with IL-17E (10 ng/ml), EGF (long/ml), or a combination of both as indicated. Cells were then washed with PBS and lysed in a lysis buffer (HEPES 10 mM, MgCl2 15 mM KCl 10 mM, DTT 0.5 mM, PMSF 0.2 mM, 1 mM Na3VO4, 10 mM NaF, 0.5% Nonidet P-40). […] Protein concentrations were determined by using Bradford method. […]
For orientation: Immunoblotting shows a protein as a band on a membrane.

Experiment [4] concerns EGFR. The experiment can be described thus: Tyrosine phosphorylation by Western blotting: EGFR phosphorylation in TNBC cell lines. Conditions: IJG-1731, BT-20 and MDA-MB468; 10 ng/ml; FIG. 1. The protocol:
BT20 and MDA-MB468 triple negative (HER2-, ER-, PR-) were obtained from American Type Culture Collection (ATCC N°HTB19, and ATCC N°HTB132, respectively). […] MDA-MB468 cells were grown in a complete DMEM-F12 media with glutamine, 10% FCS and penicillin—streptomycin. All cells were maintained in a humidified 5% CO2 atmosphere at 37° C. All experiments were conducted with cells at confluency and starved for an overnight.
as §2

Another experiment concerns Src. The experiment can be described thus: Tyrosine phosphorylation by Western blotting: Src phosphorylation in TNBC cell lines. As to the method:
as §1, §2

In the next experiment the test system is PYK-2. The experiment can be described thus: Tyrosine phosphorylation by Western blotting: PYK-2 phosphorylation in TNBC cell lines. Conditions: three cell lines; 10 ng/ml; FIG. 1. The protocol: as §1, §2
For experiment [5], the system named is EGFR. Kind of experiment: Cellular fractionation and Western blotting: EGFR and pY1086EGFR translocation to the nucleus. Conditions: MDA-MB468 cytoplasmic and nuclear fractions; FIG. 4A. The protocol: as §1, §3

B1: IL-17B: cytokine, product of the human IL-17B gene; ligand of IL-17RB (protein, UniProt Q9UHF5 21-180, looked up)
Interleukin-17B: QPRSPKSKRKGQGRPGPLAPGPHQVPLDLVSRMKPYARMEEYERNIEEMVAQLRNSSELAQRKCEVNLQLWMSNKRSLSPWGYSINHDPSRIPVDLPEARCLCLGCVNPFTMQEDRSMVSVPVFSQVPVRRRLCPPPPRTGPCRQRAVMETIAVGCTCIF
Turning to B1, the “translocation of EGFR (immunofluorescence)” value in the experiment with EGFR [1] is reported as “induced a translocation from the membrane to cytoplasm with a strong perinuclear reorganization”.

B2: IL-17E: pro-inflammatory cytokine, product of the human IL-17E gene, also named IL-25 (protein, UniProt Q9H293 33-177, looked up)
Interleukin-25: YSHWPSCCPSKGQDTSEELLRWSTVPVPPLEPARPNRHPESCRASEDGPLNSRAISPWRYELDRDLNRLPQDLYHARCLCPHCVSLQTGSHMDPRGNSELLYHNQTVFYRRPCHGEKGTHKGYCLERRLYRVSLACVCVRPRVMG
As for B2, in the experiment with STAT3 [2] (IJG-1731 and BT20 cell lines, FIGS. 1A and B), the “phosphorylation of STAT3-α and -β at Y705” value is recorded as “induced considerable phosphorylation”. In addition, the “phosphorylation of STAT3-α and -β” value in the experiment with STAT3 [2] (MDA-MB468 cell line) is given as “less evident”. Besides, the “phosphorylation of STAT3α and β” value in the experiment on STAT3 [3] is given as “induced the phosphorylation”. The “translocation of EGFR (immunofluorescence)” value in the experiment on EGFR [1] is “induced the translocation of EGFR to the nucleus but to a lower extends compared to EGF”. For the same molecule, the “intensity of induced EGFR phosphorylation” value in the experiment with EGFR [4] is “comparable to that induced by EGF”. Also, the “phosphorylation of Src at Y416 at suboptimal concentrations” value with Src (MDA-MB468, IL-17E 1 ng/ml alone or EGF 0.1-1 ng/ml alone, FIG. 3) is on record as “failed to induce any significant phosphorylation”. For the same molecule, the “phosphorylation of Src at Y416” value in the experiment on Src (three cell lines, 10 ng/ml, FIG. 1) was “induced the phosphorylation”. Besides, the “phosphorylation of PYK2 at Y402” value with PYK-2 is on record as “induced the phosphorylation”. Besides, in the experiment with EGFR [5], the “translocation of non-phosphorylated EGFR form to the nucleus” value is on record as “fairly translocate” and the “translocation of phosphorylated EGFR (pY1086EGFR) to the nucleus” value is given as “failed to induce its significant translocation to the nucleus”.

(Values after patent US20190151346A1, “COMBINATIONS THERAPIES FOR THE TREATMENT OF CANCER” (INSERM (INSTITUTE NATIONAL DE LA SANTÉ ET DE LA RECHERCHE …, priority 2016, published 2019).)
